From patent US20200024330A1

Columns and labels:
Assay in all cases: cell-based or functional assay
[1] = target: HIV-1 92TH021 envelope glycoprotein (Env) on pseudovirus (HIV-1)
[2] = target: HIV-1 92UG005 envelope glycoprotein (Env) on pseudovirus (HIV-1)
[3] = target: HIV-1 92UG024 envelope glycoprotein (Env) on pseudovirus (HIV-1)
[4] = target: HIV-1 CMU02 envelope glycoprotein (Env) on pseudovirus (HIV-1)
[5] = target: HIV-1 MGRM-AG-005 envelope glycoprotein (Env) on pseudovirus (HIV-1)
[6] = target: HIV-1 MGRM-D-001 envelope glycoprotein (Env) on pseudovirus (HIV-1)
[7] = target: HIV-1 MGRM-D-018 envelope glycoprotein (Env) on pseudovirus (HIV-1)
[8] = target: aMLV envelope protein on pseudovirus (negative control virus)
[9] = target: HIV-1 92RW020 Env (pseudovirus) (HIV-1 92RW020)
[10] = target: HIV-1 ADA Env (pseudovirus) (HIV-1 ADA)
[11] = target: HIV-1 Env of isolate AC10 (HIV-1)
[12] = target: HIV-1 Env of isolate CAAN (HIV-1)
[13] = target: HIV-1 Env of isolate CAP45 (HIV-1)
[14] = target: HIV-1 Env of isolate DU156 (HIV-1)
[15] = target: HIV-1 Env of isolate DU422 (HIV-1)
[16] = target: HIV-1 Env of isolate Du172 (HIV-1)
[17] = target: HIV-1 Env of isolate PVO.4 (HIV-1)
[18] = target: HIV-1 Env of isolate REJ04541 (HIV-1)
[19] = target: HIV-1 Env of isolate THRO.18 (HIV-1)
[20] = target: HIV-1 Env of isolate TR0.11 (HIV-1)
[21] = target: HIV-1 Env of isolate ZM214 (HIV-1)
[22] = target: HIV-1 Env of isolate ZM233 (HIV-1)
[23] = target: HIV-1 Env of isolate ZM249 (HIV-1)
[24] = target: HIV-1 JR-CSF Env I309A (pseudovirus) (HIV-1 JR-CSF) (UniProt P20871)
[25] = target: HIV-1 JR-CSF Env Y318A (pseudovirus) (HIV-1 JR-CSF) (UniProt P20871)
[26] = target: HIV-1 JR-CSF Env, wild type (pseudovirus) (HIV-1 JR-CSF) (UniProt P20871)
[27] = target: HIV-1 JR-FL Env E168K (pseudovirus) (HIV-1 JR-FL)
[28] = target: MuLV envelope protein (control pseudovirus) (MuLV)

Binder | IC50, pseudovirus neutralization [1] [µg/mL] | IC50, pseudovirus neutralization [2] [µg/mL] | IC50, pseudovirus neutralization [3] [µg/mL] | IC50, pseudovirus neutralization [4] [µg/mL] | IC50, pseudovirus neutralization [5] [µg/mL] | IC50, pseudovirus neutralization [6] [µg/mL] | IC50, pseudovirus neutralization [7] [µg/mL] | IC50, pseudovirus neutralization [8] [µg/mL] | IC50 (ug/ml), neutralization [9] [µg/mL] | IC50 (ug/ml), neutralization [10] [µg/mL] | IC50, pseudovirus neutralization (TZM-bl) [11] [µg/mL] | IC50, pseudovirus neutralization (TZM-bl) [12] [µg/mL] | IC50, pseudovirus neutralization (TZM-bl) [13] [µg/mL] | IC50, pseudovirus neutralization (TZM-bl) [14] [µg/mL] | IC50, pseudovirus neutralization (TZM-bl) [15] [µg/mL] | IC50, pseudovirus neutralization (TZM-bl) [16] [µg/mL] | IC50, pseudovirus neutralization (TZM-bl) [17] [µg/mL] | IC50, pseudovirus neutralization (TZM-bl) [18] [µg/mL] | IC50, pseudovirus neutralization (TZM-bl) [19] [µg/mL] | IC50, pseudovirus neutralization (TZM-bl) [20] [µg/mL] | further results
PGT-123 monoclonal antibody (antibody, V domains shown) VH: QLHLQESGPGLVKPPETLSLTCSVSGASINDAYWSWIRQSPGKRPEWVGYVHHSGDTNYNPSLKRRVTFSLDTAKNEVSLKLVDLTAADSATYFCARALHGKRIYGIVALGELFTYFYMDVWGKGTAVTVSS VL: SSMSVSPGETAKISCGKESIGSRAVQWYQQKPGQPPSLIIYNNQDRPAGVPERFSASPDFRPGTTATLTITNVDAEDEADYYCHIYDARGGTNWVFDRGTTLTVL | > 10 | 2.49 | > 10 | > 10 | 0.104 | 0.215 | 0.0047 | > 10 | – | – | – | – | – | – | – | – | – | – | – | – | –
PGT-135 monoclonal antibody (antibody, V domains shown) VH: QLQMQESGPGLVKPSETLSLSCTVSGDSIRGGEWGDKDYHWGWVRHSAGKGLEWIGSIHWRGTTHYKESLRRRVSMSIDTSRNWFSLRLASVTAADTAVYFCARHRHHDVFMLVPIAGWFDVWGPGVQVTVSS VL: EIVMTQSPDTLSVSPGETVTLSCRASQNINKNLAWYQYKPGQSPRLVIFETYSKIAAFPARFVASGSGTEFTLTINNMQSEDVAVYYCQQYEEWPRTFGQGTKVDIK | > 10 | > 10 | 0.0139 | > 10 | > 10 | > 10 | 0.0433 | > 10 | – | – | – | – | – | – | – | – | – | – | – | – | –
PGT-126 monoclonal antibody (antibody, V domains shown) VH: QPQLQESGPGLVEASETLSLTCTVSGDSTAACDYFWGWVRQPPGKGLEWIGGLSHCAGYYNTGWTYHNPSLKSRLTISLDTPKNQVFLKLNSVTAADTAIYYCARFDGEVLVYHDWPKPAWVDLWGRGTLVTVSS VL: QSALTQPPSASGSPGQSISISCTGTSNRFVSWYQQHPGKAPKLVIYGVNKRPSGVPDRFSGSKSGNTASLTVSGLQTDDEAVYYCSSLVGNWDVIFGGGTKLTVL | 0.115 | 0.0181 | > 10 | > 10 | 1.35 | 0.0639 | 0.0093 | > 10 | – | – | – | – | – | – | – | – | – | – | – | – | –
PGT-130 monoclonal antibody (antibody, V domains shown) VH: QVQLQESGPGLVKPAETLSLTCSVSGESINTGHYYWGWVRQVPGKGLEWIGHIHYTTAVLHNPSLKSRLTIKIYTLRNQITLRLSNVTAADTAVYHCVRSGGDILYYYEWQKPHWFSPWGPGIHVTVSS VL: QSALTQPPSASGSLGQSVTISCNGTSSDIGGWNFVSWYQQFPGRAPRLIIFEVNKRPSGVPGRFSGSKSGNSASLTVSGLQSDDEGQYFCSSLFGRWDVVFGGGTKLTVL | 0.0082 | 0.474 | > 10 | > 10 | 0.947 | > 10 | 0.0378 | > 10 | – | – | – | – | – | – | – | – | – | – | – | – | –
PGT-125 monoclonal antibody (antibody, V domains shown) VH: QSQLQESGPRLVEASETLSLTCNVSGESTGACTYFWGWVRQAPGKGLEWIGSLSHCQSFWGSGWTFHNPSLKSRLTISLDTPKNQVFLKLTSLTAADTATYYCARFDGEVLVYNHWPKPAWVDLWGRGIPVTVSS VL: QSALTQPPSASGSPGQSITISCNGTATNFVSWYQQFPDKAPKLIIFGVDKRPPGVPDRFSGSRSGTTASLTVSRLQTDDEAVYYCGSLVGNWDVIFGGGTTLTVL | 0.0066 | > 10 | > 10 | > 10 | > 10 | 2.31 | 0.0382 | > 10 | – | – | – | – | – | – | – | – | – | – | – | – | –
PGT-136 monoclonal antibody (antibody, V domains shown) VH: QLQLQESGPGLVKPSETLSLTCTVSGGSMRGTDWGENDFHYGWIRQSSAKGLEWIGSIHWRGRTTHYKTSFRSRATLSIDTSNNRFSLTFSFVTAADTAVYYCARHKYHDIFRVVPVAGWFDPWGQGLLVTVSS VL: EIVMTQSPPTLSVSPGETATLSCRASQNVKNNLAWYQLKPGQAPRLLIFDASSRAGGIPDRFSGSGYGTDFTLTVNSVQSEDFGDYFCQQYEEWPRTFGQGTKVDIK | > 10 | > 10 | 0.0915 | > 10 | > 10 | > 10 | > 10 | > 10 | – | – | – | – | – | – | – | – | – | – | – | – | –
1503_H05 (PG16) (TCN-119) (antibody, V domains shown) VH: QEKLVESGGGVVQPGGSLRLSCLASGFTFHKYGMHWVRQAPGKGLEWVALISDDGMRKYHSDSMWGRVTISRDNSKNTLYLQFSSLKVEDTAMFFCAREAGGPIWHDDVKYYDFNDGYYNYHYMDVWGKGTIVTVSS VL: QSALTQPASVSGSPGQTITISCNGTRSDVGGFDSVSWYQQSPGKAPKVMVFDVSHRPSGISNRFSGSKSGNTASLTISGLHIEDEGDYFCSSLTDRSHRIFGGGTKVTVLG | – | – | – | – | – | – | – | – | 0.02 | 0.003 | < 0.01 | 13.5 | < 0.01 | < 0.01 | 0.71 | < 0.01 | 11 | 0.22 | 4.12 | 4.3 | IC50, pseudovirus neutralization (TZM-bl) [21]: > 25 µg/mL; IC50, pseudovirus neutralization (TZM-bl) [22]: < 0.01 µg/mL; IC50, pseudovirus neutralization (TZM-bl) [23]: < 0.01 µg/mL; IC50 (ug/ml), neutralization [24]: > 1 µg/mL; IC50 (ug/ml), neutralization [25]: > 1 µg/mL; IC50 (ug/ml), neutralization [26]: 0.001 µg/mL; IC50 (ug/ml), neutralization [27]: 0.002 µg/mL; IC50, pseudovirus neutralization (TZM-bl), control virus [28]: > 25 µg/mL
1469_M23 (PG16) (TCN-118) (antibody, V domains shown) VH: QEKLVESGGGVVQPGGSLRLSCLASGFTFHKYGMHWVRQAPGKGLEWVALISDDGMRKYHSDSMWGRVTISRDNSKNTLYLQFSSLKVEDTAMFFCAREAGGPIWHDDVKYYDFNDGYYNYHYMDVWGKGTTVTVSS VL: QSALTQPASVSGSPGQTITISCNGTRSDVGGFDSVSWYQQSPGRAPKVMVFDVSHRPSGISNRFSGSKSGNTASLTISGLHIEDEGDYFCSSLTDRSHRIFGGGTKLTVLG | – | – | – | – | – | – | – | – | 0.05 | 0.005 | < 0.01 | 17.7 | < 0.01 | < 0.01 | 0.97 | < 0.01 | 21.2 | 0.39 | 7.01 | 7.52 | IC50, pseudovirus neutralization (TZM-bl) [21]: > 25 µg/mL; IC50, pseudovirus neutralization (TZM-bl) [22]: < 0.01 µg/mL; IC50, pseudovirus neutralization (TZM-bl) [23]: < 0.01 µg/mL; IC50 (ug/ml), neutralization [24]: > 1 µg/mL; IC50 (ug/ml), neutralization [25]: > 1 µg/mL; IC50 (ug/ml), neutralization [26]: 0.002 µg/mL; IC50 (ug/ml), neutralization [27]: 0.005 µg/mL; IC50, pseudovirus neutralization (TZM-bl), control virus [28]: > 25 µg/mL
1456_A12 (PG16) (TCN-117) (antibody, V domains shown) VH: HEQLVEAGGGVVQPGGSLRLSCLASGFTFHKYGMHWVRQAPGKGLEWVALISDDGMRKYHSDSMWGRVTISRDNSKNTLYLQFSSLRVEDTAMFFCAREAGGPIWHDDVKYYDFNDGYYNYHYMDVWGKGTKVTVSS VL: QSALTQPASVSGSPGQTITISCNGTSRDVGGFDSVSWYQQSPGKAPKVMVFDVSHRPSGMSNRFSGSKSGNTASLTISGLHIEDEGDYFCSSLTDRSHRIFGGGTKLTVLG | – | – | – | – | – | – | – | – | 0.05 | 0.005 | < 0.01 | 10.6 | < 0.01 | < 0.01 | 0.36 | < 0.01 | 10.4 | < 0.01 | 2.08 | 3.05 | IC50, pseudovirus neutralization (TZM-bl) [21]: > 25 µg/mL; IC50, pseudovirus neutralization (TZM-bl) [22]: < 0.01 µg/mL; IC50, pseudovirus neutralization (TZM-bl) [23]: < 0.01 µg/mL; IC50 (ug/ml), neutralization [24]: > 1 µg/mL; IC50 (ug/ml), neutralization [25]: > 1 µg/mL; IC50 (ug/ml), neutralization [26]: 0.001 µg/mL; IC50 (ug/ml), neutralization [27]: 0.003 µg/mL; IC50, pseudovirus neutralization (TZM-bl), control virus [28]: > 25 µg/mL
